One data set has as its system KPr^p53A cells. Nature of the data set: In vitro co-culture of dormant tumor cells with PMN (count of GFP+ cells). Type of data set: cell-based, mouse. On the procedure: (§1) The KPr cell line (16) was maintained in RPMI 1640 medium (Corning) and 10% FBS (Gibco). Treatment of KPr cells with 250 nM 4-hydroxytamoxifen (4-OHT, Sigma-Aldrich) induced p53 expression. p53-induced cells (KPr^p53) were stained with CellTrace dye for 20 min at 37° C. according to the manufacturer's instructions (Life Technologies) and seeded at 8500 cells/cm^2 in culture in a T175 tissue culture-treated flask (Gibco). After 7 days, cells were detached and sorted based on the CellTrace dye intensity as proliferating (KPr^p53P, with lower CellTrace) and arrested cells (KPr^p53A, with higher-intensity CellTrace; see FIG. 1A for representative image). LL2 cells were seeded at 1000 cells/cm2 and treated for 3 days with 2.5 μM cisplatin (Selleckchem). After that, cells were stained with CellTrace and sorted as described above. OVCAR3 cell senescence was induced by treating 5×10^4 cells/cm2 with 0.5 μM cisplatin for 72 hours. After that time, cells were stained with CellTrace and sorted. A549 senescence was induced by 72-hour treatment with 4 μM cisplatin and cells were sorted after staining with CellTrace. Time points for sorting were chosen as the best to observe separation between arrested and proliferating cells. Cells were sorted on Astrios (Beckman Coulter) or Melody (Becton Dickinson) fluorescence-activated cell sorters.
(§2) Arrested tumor cells were plated at 100 cells/cm^2 in a 48-well tissue culture-treated plate (Costar) for coculture experiments. After 24 hours, PMN-MDSC or PMN were added at indicated ratios. Cocultures were maintained for 48 hours in RPMI 1640+10% FBS in the presence of mouse recombinant GM-CSF (10 ng/ml; Rocky Hill) to ensure neutrophil viability. All control conditions were in the presence of media with GM-CSF. All indicated supplements (NE, S100A8/A9, BGJ398, ICI 118-551, IL-2, MPO inhibitor, LPS, lipids, PMA, and thapsigargin 1 μM) were added to culture at the same time as PMN and maintained for 48 hours. After that, media were removed and replaced by fresh media without GM-CSF. After 1 week, GFP^+ cells in wells were counted via an inverted microscope. When lipid extracts were used, lipids were added to dormant cells in culture at 1 to 0.05 or 0.01 nmol as indicated in each experiment.

A further data set has as its system PMN. Kind of data set: PMN viability (proportion of live PMN). Format: cell-based, mouse. On the procedure: FIG. 2A-FIG. 2K show neutrophil-mediated reactivation of dormant cells is regulated by stress-induced S100A8/A9. (FIG. 2A) Fold increase in the number of KPr^p53A cells cultured in the presence of PMN and S100A8/A9 or indicated cytokines relative to KPr^p53A cells cultured with PMN. Three independent experiments with 16 replicates were performed. Mean±SEM of one experiment is shown. (FIG. 2B) Fold increase in the number of KPr^p53A cells cultured in the presence of PMN and LPS relative to KPr^p53A cells cultured with PMN or alone. Means±SEM of three independent experiments with 16 replicates each are shown. (FIG. 2C) Fold increase in the number of KPr^p53A cells cultured in the presence of S100A8/A9 alone, PMN and S100A8/A9, or PMN-MDSC relative to KPr^p53A cultured alone. Means±SEM of 10 independent experiments with 16 replicates each are shown. (FIG. 2D) S100A8/A9 protein produced by PMN after treatment with indicated hormones or LPS was measured by ELISA. PMN-MDSC were isolated from spleens of Lewis lung carcinoma tumor-bearing mice. Means±SEM and results of each independent experiment with three replicates are shown. (FIG. 2E) S100A8/A9 protein secreted in vitro from PMN and PMN treated with NE with or without ICI-118; […] as measured by ELISA. Means±SEM and results of independent experiment with three replicates are shown. (FIG. 2F) Flow cytometry staining of ADRB2 receptor (dark gray) on PMN isolated from mouse spleen. Isotype control, light gray. Representative histogram of three experiments is shown. (FIG. 2G) Fold increase in the number of KPr^p53A cells cultured with PMN alone, NE alone, PMN and NE together, and PMN and NE plus ICI-118; 553 relative to KPr^p53A cells cultured alone (Ctrl). Ten independent experiments with 16 replicates for each experiment were performed. Means±SEM in a representative experiment are shown. (FIG. 2H) Number of KPr^p53A cells cultured in the presence of PMN from S100a9KO mice alone or together with NE relative to KPr^p53A cells cultured alone (ctrl). Means±SEM are reported for 16 replicates. (FIG. 2I) Percentage of live PMN after overnight incubation with NE, S100A8/A9, or LPS. Each dot represents the average of three experimental replicates of one single experiment. Means±SEM are shown for each group. (FIG. 2J) Fold increase in number of LL2^CisA cells cultured with PMN alone or together with S100A8/A9 or NE relative to LL2^CisA cultured alone (Ctrl). Means±SEM of three independent experiments with 16 replicates each are shown. […] In all panels, P values were calculated using ANOVA test with correction for multiple comparisons.
FIG. 11A-FIG. 11G show the mechanism of dormant tumor cell reactivation. […] P values were calculated by ANOVA test with correction for multiple comparisons. […]

Data set [1] relates to LL2^cisA and AT-3^DoxA cells. Kind of data set: In vitro co-culture of chemotherapy-arrested mouse tumor cells with PMN. Type of data set: cell-based. On the procedure:
as §1, §2

The values below come from patent publication US20230151434A1, “REAWAKENING OF DORMANT TUMOR CELLS BY MODIFIED LIPIDS DERIVED FROM STRESS ACTIVATED NEUTROPHILS” (The Wistar Institute of Anatomy and Biology, priority 2020, published 2023).

For `Cc1ccc(OCC(O)C(C)NC(C)C)c2c1CCC2` (centres unmarked) [ICI-118,551], the “proliferation of KPr^p53A cells induced by PMN and NE, effect of β-blocker” value in the data set with KPr^p53A cells (PMN and NE plus ICI-118,551) is “this effect was abrogated”. Further, the “cytotoxic effect on PMN” value in the data set with PMN (proportion of live PMN after exposure) is on record as “no cytotoxic effect on PMN”. Further, the “NE- and PMN-induced reactivation of dormant mouse tumor cells, effect of β-blocker” value in data set [1] (PMN and NE plus ICI-118,551) is “this effect was abrogated”.

B1: S100A8/A9: recombinant S100A8/A9, heterocomplex of two S100 calcium binding proteins (calprotectin) (protein, UniProt P27005 2-89; P31725 2-113, looked up)
Protein S100-A8: PSELEKALSNLIDVYHNYSNIQGNHHALYKNDFKKMVTTECPQFVQNINIENLFRELDINSDNAINFEEFLAMVIKVGVASHKDSHKE
Protein S100-A9: ANKAPSQMERSITTIIDTFHQYSRKEGHPDTLSKKEFRQMVEAQLATFMKKEKRNEALINDIMEDLDTNQDNQLSFEECMMLMAKLIFACHEKLHENNPRGHGHSHGKGCGK
In the case of B1, the “reactivation/proliferation of KPr^p53A cells, supplement alone” value with KPr^p53A cells (absence of PMN) is reported as “no effect”. Also, the “reactivation of KPr^p53A cells cultured with MON plus supplement” value in the data set on KPr^p53A cells (monocytes instead of PMN) is “failed to reactivate KPr^p53A cells”. Also, the “reactivation/proliferation of KPr^p53A cells cultured with PMN plus supplement” value in the data set on KPr^p53A cells (supplement added with PMN, LPS 0.5 to 2 μg/ml) was “enabled PMN to induce proliferation of KPr^p53A cells”. In the data set on PMN, the PMN viability entry is reported as “did not affect PMN viability”. Also, the “proliferation of arrested mouse tumor cells cultured with mouse PMN plus supplement” value in data set [1] (LL2^cisA, AT-3^DoxA) was “activated proliferation”.
